The target of assay [1] is T1, type V tartrate-resistant acid phosphatase (TRAP) protein, immobilised on CM5 sensor chip. Nature of the assay: SPR, TRAP-functionalized surface, binding curve fit.
Method: Quantitative analyses of peptide and polymer affinities were performed using SPR. […] The binding of any molecules to the surface of the sensor chips results in a change in the angle of incident light reflection, allowing highly-sensitive detection of miniscule amounts of ligand binding to the surface. Target affinity can be determined by introduction of increasing concentrations of the molecule to the surface (FIG. 38A and FIG. 38B). […] The binding response is measured and plotted against concentration, allowing for a fitting of the data by a binding curve. From this fitting, values such as the dissociation constant (KD) value can be determined. Through this technique, the affinity of peptides and peptide-functionalized polymers were analyzed.
For assay [2], the target named is T1, type V tartrate-resistant acid …. Nature of the assay: SPR, TRAP-functionalized surface, binding curve fit (n = 2, Ave. ± StDev). (SPR reads the build-up and loss of mass on a sensor chip optically.)
Assay [3] shares this target. Nature of the assay: SPR, TRAP amine-coupled to CM5 chip, steady-state response vs concentration fit.
Method: Surface plasmon resonance (SPR) is used to assess the affinity of peptides for TRAP. Series S Sensor CM5 Chips are functionalized with TRAP via 1-ethyl-3-(3-dimethylaminopropyl) carbodiimide (EDC)/N-hydroxysuccinimide (NHS) chemistry. Briefly, the chips, which have a carboxymethylated dextran functionality, are activated through the introduction of NHS and EDC. After activation, TRAP protein, at 30 μg/mL in sodium acetate (pH=5), is introduced to the surface. Ethanolamine-hydrochloric acid is used to quench unreacted carboxysuccinimide groups. Peptides are dissolved in running buffer of PBS with 0.005% Tween20. Peptides are analyzed in duplicate at different concentrations. Surface regeneration is achieved using a combination of 1 and 2 M NaCl and 1-50 mM NaOH solutions as necessary.
Target affinity can be determined by introducing increasing concentrations of the ligand to the surface. […] The binding response was measured and plotted against concentration (FIG. 4), allowing for a fitting of the data by a binding curve. From this fitting, values such as KD can be determined.
The target of assay [4] is T2, TRAP deposited by osteoclasts on human cortical bone wafers (human, UniProt P13686 22-325, limits assumed).
T2 construct: The protein is native TRAP deposited on bone, not purified; also called bone wafers decorated with TRAP; resorption pits
T2 sequence (looked up): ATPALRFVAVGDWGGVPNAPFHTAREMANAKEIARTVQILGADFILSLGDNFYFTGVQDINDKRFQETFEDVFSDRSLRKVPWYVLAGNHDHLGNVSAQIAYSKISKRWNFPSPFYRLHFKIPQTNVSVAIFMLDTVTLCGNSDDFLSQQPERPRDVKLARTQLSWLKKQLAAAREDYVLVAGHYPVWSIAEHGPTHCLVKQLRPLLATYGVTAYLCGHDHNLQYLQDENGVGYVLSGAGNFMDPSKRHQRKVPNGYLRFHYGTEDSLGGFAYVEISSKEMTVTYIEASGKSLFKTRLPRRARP
Put plainly: confocal imaging of fluorescently labeled peptide incubated overnight on human cortical bone wafers. On the procedure: Equal concentrations of fluorescently labeled TBP and SCP are prepared in 1× phosphate-buffered saline (PBS). Bone wafers are cut from cortical bone obtained from the femur of a human donor cadaver and incubated in peptide solutions overnight, washed twice with 1×PBS, and then visualized via confocal imaging. Stacked sections are compressed into 2D images to allow for qualitative analysis as in FIG. 3A through FIG. 3D.

Assay [5] addresses T1, type V tartrate-resistant acid …. Nature of the assay: SPR, TRAP amine-coupled to CM5 chip, initial rate analysis of sensorgrams.
Method: Surface plasmon resonance (SPR) is used to assess the affinity of peptide-functionalized polymers for TRAP. Series S Sensor CM5 Chips are functionalized with TRAP via 1-ethyl-3-(3-dimethylaminopropyl) carbodiimide (EDC)/N-hydroxysuccinimide (NHS) chemistry. Briefly, the chips, which have a carboxymethylated dextran functionality, are activated through the introduction of NHS and EDC. After activation, TRAP protein, at 30 μg/mL in sodium acetate (pH=5), is introduced to the surface. Ethanolamine-hydrochloric acid is used to quench unreacted carboxysuccinimide groups. Polymers are dissolved in running buffer of PBS with 0.005% Tween20. Polymers are analyzed in duplicate at different concentrations. Surface regeneration is achieved using 1-10 mM NaOH solutions as necessary. […] Sensorgram data (FIG. 22) are exported from the SPR evaluation software after smoothing data of injection events and analyzed. Response units (RU) are converted into concentrations for rate analysis using the equation:
Where S is the concentration of polymer bound to the TRAP-functionalized surface and MW is the molecular weight of the polymer. The binding rates of polymers to TRAP are determined in the initial linear portion of association, within two seconds of the start of injection. […]

Ends that are not written are not given here.

From patent US20150374663A1 (UNIVERSITY OF ROCHESTER, published 2015) come the findings set out here.

B1: TRAP-binding peptide (TBP), TPLSYLKGLVTVG (peptide)
peptide: TPLSYLKGLVTVG-OH
modifications: also: fluorescent cadaverine label in bone wafer experiment, position not given here
notes: also called TRAP peptide
Turning to B1, the Kd in assay [1] is around 700 µM; in assay [2] it was 795 µM; in assay [3] it was around 200 µM.

B2: scrambled control peptide (SCP), VPVGTLSYLKLTG (peptide)
peptide: VPVGTLSYLKLTG-OH
modifications: not fully specified; also: fluorescent cadaverine label in bone wafer experiment, position not given here
notes: In the bone wafer experiment it carried a fluorescent cadaverine label; also called scrambled peptide
On to B2, for which the binding result in assay [4] was “no binding”.

B3: 10% TBP-functionalized PEG polymer (pTBP) of Table 4, M:CTA:I 300:1:0.1, Mn 40.1 kDa (other)
peptide: TPLSYLKGLVTVG-OH
modifications: not fully specified (N-terminus); also: copolymerized by RAFT with PEG methyl ether methacrylate (300 Da), ~9 peptides per chain, fluorescently labelled for bone-targeting studies, position not given here
notes: Random copolymer; Footnote e says it was used for the in vitro and in vivo bone-targeting studies, where it was fluorescently labeled; also called 10% TBP-functionalized polymer
As to B3, in assay [5], the Kd came to 60 µM.

What is called Kd is the free concentration of one partner at which half of the binding sites on the other are occupied at equilibrium, for simple one-to-one binding. A low value points to higher affinity.
